Laboratory results reported in article PMC7327177.
“And” between values parts separate entries of the source, which are not always exact repeats. Identical values can stand only once.

How the values were obtained:
[1] = molecular target: Heme A synthase from Aquifex aeolicus (Aquifex aeolicus strain VF5) (UniProt O66543); assay: native MS; LILBID-MS, AaHAS 2 mg/ml, in the presence of 150 mM NaCl, harsh laser mode, negative-ion mode
[2] = molecular target: Heme A synthase from Aquifex aeolicus (Aquifex aeolicus strain VF5) (UniProt O66543); assay: SEC-MALS; 150 μl AaHAS at ~2 mg/ml, Superdex 200 10/300 GL, 20 mM Tris-HCl pH 7.4, 150 mM NaCl, 0.15% DM, 4°C
[3] = molecular target: Heme A synthase from Aquifex aeolicus (Aquifex aeolicus strain VF5) (UniProt O66543); assay: native MS; LILBID-MS, additionally desalted AaHAS (without NaCl; 20 mM Tris-HCl pH 7.4, 0.15% DM), harsh laser mode, negative-ion mode
[4] = molecular target: Heme A synthase from Aquifex aeolicus (Aquifex aeolicus strain VF5) (UniProt O66543); assay: native gel or EMSA; BN-PAGE, Novex 4 to 16% bis-Tris gel, purified AaHAS in DM; band at about 200 kDa, conversion factor 1.8 gives 110 kDa
[5] = molecular target: Heme A synthase from Aquifex aeolicus (Aquifex aeolicus strain VF5) (UniProt O66543); assay: cross-linking; 0.5/3.5 mM BS3 or 0.5 mM DSS, room temperature, 30 min, quenched with 50 mM Tris-HCl pH 7.5, then 90°C for 10 min and SDS-PAGE
[6] = molecular target: Heme A synthase from Aquifex aeolicus (Aquifex aeolicus strain VF5) (UniProt O66543); assay: cryo-EM structure; single-particle cryo-EM of purified AaHAS (2.5 mg/ml) in DM; map at 4.2 Å with C3 symmetry, 4.6 Å without applied symmetry
[7] = molecular target: Heme A synthase from Aquifex aeolicus (Aquifex aeolicus strain VF5) (UniProt O66543); assay: SDS-PAGE + MALDI-TOF MS; purified AaHAS on 4 to 12% bis-Tris NuPAGE; incubated with 10 mM DTT at room temperature or 70°C for 10 min; masses of the two bands by MALDI-TOF MS (data not shown)

Substance: Heme A synthase from Aquifex aeolicus (from UniProt O66543 2-296) (enzyme)
- stoichiometry N [1]: 3
- stoichiometry N [2]: 3
- stoichiometry N [3]: 2 and 3
- stoichiometry N [4]: 3
- stoichiometry N [5]: 2 and 3
- stoichiometry N [6]: 3
- stoichiometry N [7]: 3
